In article PMC9888390, “A non-neutralizing glycoprotein B monoclonal antibody protects against herpes simplex virus disease in mice” (The Journal of Clinical Investigation, 2023):

Assays:
[1] = target: T1, Recombinant HSV-1 glycoprotein B, soluble ectodomain (Human herpesvirus 1, strain  …, UniProt P06437); test: Luminex bead binding assay; HSV-1 gB coupled to carboxylated beads; rAbs serially diluted from 2 μg/mL (3-fold, 11 dilutions) in PBS with 1% BSA, 0.05% NaN3, 0.05% Tween-20 and 1% milk, 2 hours; detected with PE-conjugated goat anti-mouse IgG; conditions: both partners purified
T1 construct: glycoprotein B of herpes simplex virus 1, soluble ectodomain, postfusion state; The printed limits 31-70 are perhaps a misprint of 31-730 (surmised). 'epo' in the name is perhaps a foreign signal peptide (surmised); also called gB; gB-1; not shown: His tag, C-terminal, kept

[2] = target: T2, glycoprotein B of HSV-2(4674), from infected Vero cells (Human herpesvirus 2, clinical isolate …, UniProt P08666, strain); test: Western blot; HSV-2(4674)-infected or uninfected Vero cell lysates (10 μg per lane) separated by PAGE with β-mercaptoethanol, blotted and probed with BMPC-23 (10 μg/mL) overnight; anti-mouse IgG-HRP; conditions: one partner purified
T2 construct: glycoprotein B of herpes simplex virus 2, clinical isolate 4674, as made in infected cells; Seen as a band of about 100 kDa or about 116 kDa on a reducing gel; also called gB; monomeric gB; source: Vero cells infected with HSV-2(4674), in lysate

[3] = target: glycoprotein B of HSV-2(G), from infected HaCaT cells (Human herpesvirus 2, strain G, UniProt A0A0D4CHI5, strain); test: affinity purification with mass spectrometry; RIPA lysate of HSV-2(G)-infected HaCaT cells incubated overnight at 4°C with 1 mg/mL mAb; Protein A resin; elution with glycine-HCl pH 2.5-3.0; SDS-PAGE, in-gel trypsin digestion, nano-LC-MS/MS; conditions: one partner purified
[4] = target: T1, Recombinant HSV-1 glycoprotein B, …; test: BLI; OctetRed96; gB (C-terminal His tag) captured on anti-His (HIS2) biosensors at 1 ng/μL, dipped into increasing concentrations of BMPC-23 Fab; 1:1 binding model; apparent KD derived from on and off rates; conditions: both partners purified
[5] = target: T1, Recombinant HSV-1 glycoprotein B, …; test: cryo-EM structure; gB 2.5 mg/mL with a 2-fold molar excess of Fab (3 mg/mL), 0.08% n-octyl-β-D-glucoside; Titan Krios 300 keV, K3 detector; gB in the postfusion state; conditions: both partners purified

B1: BMPC-23 recombinant mouse IgG (antibody, V domains shown)
VH: QVQLQQSGPELVKPGASVKLSCKASGYSFTTYDINWVKERPGQGLEWIGWIYPREGSTNYNEKFRGKATLTADTSSSTAYMELHSLTSEDSAVYFCATYGSSRYYTMDYWGQGTSVTVSS
VL: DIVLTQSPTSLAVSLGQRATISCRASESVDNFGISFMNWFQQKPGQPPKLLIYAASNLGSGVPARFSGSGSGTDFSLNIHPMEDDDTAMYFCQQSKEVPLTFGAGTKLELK
notes: VH of BMPC-23 (bone marrow plasmacyte of a ΔgD-2-vaccinated C57BL/6 mouse); mouse IgG1 or IgG2c constant region from the expression vector; VL of BMPC-23; Cloned into both mouse IgG1 and IgG2c vectors; also called BMPC-23 (IgG2c); mIgG2c BMPC-23; source: Expi293F, transient transfection, purified from culture supernatant (protein G spin columns); copies: 2 + 2
**Q.** Does B1 bind [1]?
**A.** binds

**Q.** Does B1 bind [2]?
**A.** binds

**Q.** Does B1 bind [3]?
**A.** binds

B2: BMPC-23 Fab (Fab, V domains shown)
VH: B1 VH
VL: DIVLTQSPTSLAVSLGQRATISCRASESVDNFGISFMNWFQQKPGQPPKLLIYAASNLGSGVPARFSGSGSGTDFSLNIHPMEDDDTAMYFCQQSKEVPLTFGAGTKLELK
notes: as the heavy chain of m1 up to the papain cut; as the light chain of m1; also called Fab of BMPC-23; Fab portion of BMPC-23; source: from intact BMPC-23 (Expi293F) by cleavage with immobilized papain; purified by subtractive protein A chromatography
**Q.** How did the Kd [4] turn out when B2 was run?
**A.** 10 nM

B3: HSV010-13 recombinant mouse IgG (antibody, V domains shown)
VH: QVQLQQPGAELVKPGASVKLSCKASGYTFTSYWIHWVKQGPGQGLEWIGMIHPNSGITHYNEKFKTKATLTVDKSSSTAYMQLSSLTSEDSAVCYCARGSSSGSAWFAYWGQGTLVTVSA
VL: DIQMTQSSSYLSESLGGRVTITCKASDHINNWLAWYQQKPGNAPRLLISGATSLETGVPSRFSGSGSGKDYTLSITSLQTEDVATYYCQQYWSSPLTFGAGTKLELK
notes: VH of HSV010-13 (germinal center B cell of a ΔgD-2-vaccinated C57BL/6 mouse); VL of HSV010-13; Member of a clonal lineage of five (HSV010-6, -9, -13, -14, -15); source: Expi293F, transient transfection, purified from culture supernatant (protein G spin columns); copies: 2 + 2
**Q.** Does B3 bind [1]?
**A.** binds

B4: HSV010-13 Fab (Fab, V domains shown)
VH: B3 VH
VL: B3 VL
notes: Fab part of the heavy chain of m5; as the light chain of m5; The methods tell how the Fab was made only for BMPC-23; also called Fab fragment of HSV010-13
**Q.** Does B4 bind [5]?
**A.** binds
